# Results published in patent US6902885 (APOPTOSIS TECHNOLOGY, dated 2005).
# T1: caspase 9 (UniProt P55211 1-416)
# T1 sequence: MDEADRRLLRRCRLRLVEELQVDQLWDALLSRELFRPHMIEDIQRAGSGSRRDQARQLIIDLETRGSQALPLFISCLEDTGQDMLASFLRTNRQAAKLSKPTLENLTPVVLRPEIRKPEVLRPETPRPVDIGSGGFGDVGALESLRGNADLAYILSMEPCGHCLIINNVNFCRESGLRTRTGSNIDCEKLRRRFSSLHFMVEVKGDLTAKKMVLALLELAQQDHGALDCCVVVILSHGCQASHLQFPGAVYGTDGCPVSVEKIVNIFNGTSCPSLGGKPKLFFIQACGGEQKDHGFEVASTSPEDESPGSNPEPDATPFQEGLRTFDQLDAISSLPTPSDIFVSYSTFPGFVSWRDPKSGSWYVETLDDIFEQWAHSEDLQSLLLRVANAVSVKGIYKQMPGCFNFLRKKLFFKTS
# B1: pUL37Smyc (HCMV pUL37S fused at its C-terminus with a c-myc-epitope tag) (other)
# chain: MSPVYVNLLGSVGLLAFWYFSYRWIQRKRLEDPLPPWLRKKKACALTRRSRHRLRRQHGVIDGENSETERSVDLVAALLAEAGEESVTEDTEREDTEEEREDEEEENEARTPEVNPIDAEGLSGLAREACEALKKALRRHRFLWQRRQRARMLQHNGPQQSHQ
# notes: range 410-419; also called pUL37x1; pUL37x1myc
# Target: T1, caspase 9
# Assay: pull-down: pUL37Smyc held by anti-myc antibody on protein G agarose beads, 35S-labelled in vitro translated protein, SDS-PAGE
binder,measurement,value
B1,binding result,no binding
